The target of this experiment is T1, full-length recombinant human NF2, phosphorylated by PKAc (human, UniProt P35240 1-595, phosphoserine at S10 and S518 (phosphorylated by PKAc in vitro)).
T1 sequence (looked up): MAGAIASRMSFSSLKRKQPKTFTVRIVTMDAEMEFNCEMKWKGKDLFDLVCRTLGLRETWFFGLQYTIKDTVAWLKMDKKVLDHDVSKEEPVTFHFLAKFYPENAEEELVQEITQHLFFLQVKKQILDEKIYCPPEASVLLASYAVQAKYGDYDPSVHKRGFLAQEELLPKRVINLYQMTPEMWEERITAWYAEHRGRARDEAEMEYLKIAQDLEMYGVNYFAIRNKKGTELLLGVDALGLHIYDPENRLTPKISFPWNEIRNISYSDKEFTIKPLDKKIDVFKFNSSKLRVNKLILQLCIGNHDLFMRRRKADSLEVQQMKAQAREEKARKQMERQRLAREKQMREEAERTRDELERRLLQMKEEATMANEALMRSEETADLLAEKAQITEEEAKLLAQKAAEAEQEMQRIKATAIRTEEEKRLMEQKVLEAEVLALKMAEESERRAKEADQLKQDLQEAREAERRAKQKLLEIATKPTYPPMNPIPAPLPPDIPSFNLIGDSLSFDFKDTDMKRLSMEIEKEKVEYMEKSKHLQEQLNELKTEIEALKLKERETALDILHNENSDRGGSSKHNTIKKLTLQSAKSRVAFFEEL
The experiment in a line: cell-based or functional assay.

Consider 1 molecule from PMC7791067, “PLPP/CIN-mediated NF2-serine 10 dephosphorylation regulates F-actin stability and Mdm2 degradation in an activity-dependent manner” (Cell Death & Disease, 2021).

B1: recombinant human PLPP/CIN (enzyme, UniProt Q96GD0 1-296, looked up)
chain: MARCERLRGAALRDVLGRAQGVLFDCDGVLWNGERAVPGAPELLERLARAGKAALFVSNNSRRARPELALRFARLGFGGLRAEQLFSSALCAARLLRQRLPGPPDAPGAVFVLGGEGLRAELRAAGLRLAGDPSAGDGAAPRVRAVLVGYDEHFSFAKLREACAHLRDPECLLVATDRDPWHPLSDGSRTPGTGSLAAAVETASGRQALVVGKPSPYMFECITENFSIDPARTLMVGDRLETDILFGHRCGMTTVLTLTGVSRLEEAQAYLAAGQHDLVPHYYVESIADLTEGLED
On to B1, for which the “NF2-S10 phosphorylation (western blot) in the in vitro phosphatase assay with recombinant proteins, after PKAc” value was ~0.63 fold of vehicle level.
